This is an account of results in patent US20250176833A1.

For test [1], the target named is Fc receptors on HL-60 cells. Put plainly: flow cytometry, titration of IRDye680RD-labeled protein on HL-60 cells, non-linear fit of normalized MFI. On the technique in general: A flow cytometer gives signals particle by particle.
For test [2], the target named is Fc receptors on Mv4-11 cells. Put plainly: flow cytometry, titration of IRDye680RD-labeled protein on Mv4-11 cells, non-linear fit of normalized MFI.
Test [3] addresses Fc receptors on monocytes of human peripheral blood. Put plainly: flow cytometry on human peripheral blood with immune panel, monocyte gate (CD14 vs Fc-680).
In test [4] the target is Fc receptors on granulocytes of human peripheral blood. In words: flow cytometry on human peripheral blood with immune panel, granulocyte gate (CD16 vs Fc-680).

Usually Kd stands for the free concentration of one partner at which half of the binding sites on the other are occupied at equilibrium, for simple one-to-one binding. A high value points to lower affinity. “control IgG, labeled with IRDye680RD (antibody)”: the Kd in test [1] was found to be 5 nM; in test [2], 1.7 nM.

“control scFv-Fc, labeled with IRDye680RD (Fc fusion)”: the Kd in test [1] came out at 2.1 nM; in test [2], 1.5 nM.

For the substance “human IgG1 Fc domain (hinge, CH2 and CH3; expressed with IL2 signal sequence), labeled with IRDye680RD (from UniProt P0DOX5 218-449)”, the figures for the percent of cells bound in test [3] and in test [4] were 25% and 33%, respectively. Also, the Kd in test [1] was 3.6 nM; in test [2] it was 0.4 nM.
